Experimental data: patent US20140357845A1 (published 2014)

Experiments:
[1] = molecular target: mini-H3 cluster1 + 2 + 3 + 4 + 5 + 6 + 7-N405D (influenza A virus H3N2, UniProt Q38SQ8 18-566); test: FACS
[2] = molecular target: mini-H3 cluster1 + 2 + 3 + 4 + 5 + 6 + 7-N405A (influenza A virus H3N2, UniProt Q38SQ8 18-566); test: FACS

B1: CR9114 (antibody, V domains shown)
VH: QVQLVQSGAEVKKPGSSVKVSCKSSGGTSNNYAISWVRQAPGQGLDWMGGISPIFGSTAYAQKFQGRVTISADIFSNTAYMELNSLTSEDTAVYFCARHGNYYYYSGMDVWGQGTTVTVSS
VL: SYVLTQPPAVSGTPGQRVTISCSGSDSNIGRRSVNWYQQFPGTAPKLLIYSNDQRPSVVPDRFSGSKSGTSASLAISGLQSEDEAEYYCAAWDDSLKGAVFGGGTQLTVL
Question: Does B1 bind [1]?
Answer: Result: no binding (tested: 5 microgram/ml)

Question: Does B1 bind [2]?
Answer: Result: no binding (tested: 5 microgram/ml)
